Experimental data: US20200399712A1, “COMPOSITIONS AND METHODS FOR THE DIAGNOSIS AND DETECTION OF TUMORS AND CANCER PROGNOSIS” (priority 2018, published 2020)
“Also recorded” adds a separate entry of the source. Marks after values point to notes of the source that are not given here.

Columns and labels:
[1] = tested on: HPV-16 genome; assay: qPCR sensitivity against HPV-16 copy number (known-copy HPV-16 DNA among 10 ng normal human DNA); conditions: for reaction under 10 copies of HPV-16 genome / reaction under 30 copies of HPV-16 genome: among 10 ng normal DNA, triplicate qPCR
[2] = tested on: HPV-16; assay: qPCR on 20 ng DNA from saliva samples of HPV-HNSCC patients
Description: All samples were run in triplicates.
The sensitivity of detection from saliva 20 ng DNA samples is 32.1% (9/28) in E6 primer-probe sets, 42.9% (12/28) in E7 primer-probe sets, 35.7% (10/28) in “Min-5” primer-probe sets, 46.4% (13/28) in “Max-10” primer-probe sets. The sensitivity of combination of “5” and “10” is 50% (14/28) and that of E6 and E7 is 42.9% (12/28). By the standard curve analysis, the copy numbers that detected by “Max-10” primer-probe sets were the highest in these 4 primer-probe sets. The slope of standard curve is −3.5 in “Min-5” primer-probe sets when delta Rn is plotted against cycle threshold (FIG. 5).

[3] = tested on: HPV DNA; assay: CLIA HPV test pilot study on saliva rinse samples from HPV-positive HNSCC patients and non-cancer controls; design: species or system HPV16; HPV16 DNA measured by CLIA HPV test: unit not given here
Description: As a final validation, Applicants a small pilot study was performed on a blinded set of saliva rinse samples from 28 patients with HPV-positive HNSCC and 15 salivary rinses from non-cancer controls. […] The sensitivity increased to 96% when all three sets were used (Table 3).

[4] = tested on: HPV16 DNA; assay: CLIA test for HPV16, performance characteristics in plasma
Excerpt: (§1) These primer/probe sets were adapted for development of a CLIA test for HPV16 DNA detection in plasma and salivary rinses (Table 2). Test performance was improved, so that analytical sensitivity in salivary rinse spike in assays ranges from 2.5-5.0 DNA copies/mL with 100% specificity for the three primer/probe sets that are now part of the component assay, resulting in a five-fold improvement in analytic sensitivity that is in the range of sensitivity found in sequence based liquid biopsy methods (FIG. 23, Table 2). Additionally, the assays can be used quantitatively, with measuring ranges between 2.0 log10-7.0 log10 copies/mL.

[5] = tested on: HPV-16; assay: qPCR sensitivity against HPV-HNSCC tumor samples diluted among 10 ng normal human DNA
Description: Quantitative real-time polymerase chain reaction (qRT-PCR) was used to examine the threshold in each experiment. qRT-PCR was performed using Quant Studio 6 Flex Real-Time PCR System (Thermo Fisher Scientific). All samples were run in triplicates. HPV-16 viral amplicon copy number estimations were developed using the CaSki cell line. After amplification of the amplicon by PCR, DNA concentration was calculated by weight NanoDrop®, then converted to DNA copy number by calculation based on the molecular weight of the double stranded amplicon. […] In the other 32 HPV-HNSCC cohort, Applicants diluted the tumor sample to 990 pg, 198 pg, 99 pg, 39.6 pg, 7.9 pg, 3.2 pg, and 1.6 pg of amount tumor weight, (correspond to 150, 30, 15, 6, 1.2, 0.6, and 0.3 cells: assumption that 1 tumor cell have 6.6 pg DNA (=3*10^9 (human DNA genome bp)*2 (diploid)*1.67*10^(−24) g (weight/Dalton))) combined with 10 ng normal leukocyte human DNA and compare the threshold of each primer-probe sets.
In this regard, Applicants investigated the other 32 HPV-HNSCC tumor samples. From the assumption that 1 cell tumor DNA contain 6.6 pg DNA, Applicants made the dilution series by DNA derived from normal lymphocyte as described and decide the threshold for each primer-probe set.
Furthermore, to determine whether these designed primer/probe sets also have a high sensitivity in a separate cohort, Applicants performed PCR in a validation cohort of 32 additional primary tumor samples with validated presence of HPV-16. Applicants prepared serial of dilutions of tumor DNA in normal lymphocyte DNA from non-cancer individuals and determined the threshold for each primer/probe set and defined amplification thresholds expressed in number of tumor cells for each sample (Table 5).

[6] = tested on: HPV16 DNA; assay: CLIA test for HPV16, performance characteristics in salivary rinse
Excerpt: as §1

[7] = samples tested 3 times, 10 ng DNA from healthy individual
[8] = first template ('... HPV16', word is an image)
[9] = second template (name is an image)
[10] = tumor DNA dilution, fraction of 32 samples

B1: BR E1-5: HPV-16 E1 region primer/probe set, SEQ ID NO: 40-42 (same as SEQ ID NO: 1-3) (nucleic acid)
DNA 1: GCACAATTGGCAGACACTAAT
DNA 2: GCACAATCCTTTACAATTTTTGCC
DNA 3: AGTAATGCAAGTGCCTTTCTAAAAAGTAATTC
modifications: chemistry not given here
reaction under 10 copies of HPV-16 genome [1]: consistent detection
reaction under 30 copies of HPV-16 genome [1]: consistently amplified
reaction under 10 copies of HPV-16 genome ([1]; listed as Min-5): consistently triplicate reaction; also recorded: could detect
reaction under 30 copies of HPV-16 genome ([1]; listed as Min-5): react consistently
number of reactions against 10 HPV-16 copies [1, 7]: 3 reactions
number of reactions under 30 HPV-16 copies [1, 7]: 3 reactions
sensitivity of detection from saliva 20 ng DNA samples ([2]; 28 HPV-HNSCC saliva samples): 35.7%
slope of standard curve (delta Rn plotted against cycle threshold) ([2]; RT-PCR, 20 ng DNA from HPV-HNSCC saliva samples (FIG. 5)): −3.5
sensitivity for the detection of HPV DNA in saliva rinse samples ([3]; 28 patients with HPV-positive HNSCC): 79%
HPV16 DNA measured by CLIA HPV test ([3]; saliva sample from HPV-HNSCC patient # 1): 866000
HPV16 DNA measured by CLIA HPV test ([3]; saliva sample from HPV-HNSCC patient # 2): 118000
HPV16 DNA measured by CLIA HPV test ([3]; saliva sample from HPV-HNSCC patient # 3): 47600
HPV16 DNA measured by CLIA HPV test ([3]; saliva sample from HPV-HNSCC patient # 4): 104000
HPV16 DNA measured by CLIA HPV test ([3]; saliva sample from HPV-HNSCC patient # 7): 9790
HPV16 DNA measured by CLIA HPV test ([3]; saliva sample from HPV-HNSCC patient # 8): 3590
HPV16 DNA measured by CLIA HPV test ([3]; saliva sample from HPV-HNSCC patient # 9): 2600
HPV16 DNA measured by CLIA HPV test ([3]; saliva sample from HPV-HNSCC patient # 12): 127
HPV16 DNA measured by CLIA HPV test ([3]; saliva sample from HPV-HNSCC patient # 13): 290
HPV16 DNA measured by CLIA HPV test ([3]; saliva sample from HPV-HNSCC patient # 14): 114
HPV16 DNA measured by CLIA HPV test ([3]; saliva sample from HPV-HNSCC patient # 15): 160
HPV16 DNA measured by CLIA HPV test ([3]; saliva sample from HPV-HNSCC patient # 16): 121
HPV16 DNA measured by CLIA HPV test ([3]; saliva sample from HPV-HNSCC patient # 17): 67.4
HPV16 DNA measured by CLIA HPV test ([3]; saliva sample from HPV-HNSCC patient # 18): 15.8
HPV16 DNA measured by CLIA HPV test ([3]; saliva sample from HPV-HNSCC patient # 19): 61.1
HPV16 DNA measured by CLIA HPV test ([3]; saliva sample from HPV-HNSCC patient # 20): 30.9
HPV16 DNA measured by CLIA HPV test ([3]; saliva sample from HPV-HNSCC patient # 21): 25.7
HPV16 DNA measured by CLIA HPV test ([3]; saliva sample from HPV-HNSCC patient # 22): 2.68
HPV16 DNA measured by CLIA HPV test ([3]; saliva sample from HPV-HNSCC patient # 23): 1.82
HPV16 DNA measured by CLIA HPV test ([3]; saliva sample from HPV-HNSCC patient # 24): 14.4
HPV16 DNA measured by CLIA HPV test ([3]; saliva sample from HPV-HNSCC patient # 25): 2.76
HPV16 DNA measured by CLIA HPV test ([3]; saliva sample from HPV-HNSCC patient # 27): 2.17
Accuracy - Plasma Blind Panel, Negative % Agreement [4]: 100%
Accuracy - Plasma Blind Panel, Positive % Agreement [4]: 100%
Accuracy - Plasma Blind Panel, Total % Agreement [4]: 100%
Measuring Range - Plasma ([4]; first template ('... HPV16')): 2.0-8.5 log10 log10 copies/mL
Limit of Detection - Plasma [4, 8]: 1.5 copies/mL
Limit of Detection - Plasma [4, 9]: 22 copies/mL
Measuring Range - Plasma [4, 9]: 2.0-6.5 log10 log10 copies/mL
sensitivity under 100 cells ([5]; 32 HPV-HNSCC tumor samples): 96.9%
sensitivity under single cells ([5]; 32 HPV-HNSCC tumor samples, 6.6 pg DNA): 28.1%
sensitivity under 10 cells ([5]; 32 HPV-HNSCC tumor samples, 66 pg DNA): 68.7%
Threshold of tumor cell numbers for HPV-16 detection ([5]; Sample # 1): 60.0 tumor cells
Threshold of tumor cell numbers for HPV-16 detection ([5]; Sample # 2): 150.0 tumor cells
Threshold of tumor cell numbers for HPV-16 detection ([5]; Sample # 3): 30.0 tumor cells
Threshold of tumor cell numbers for HPV-16 detection ([5]; Sample # 4): 6.0 tumor cells
Threshold of tumor cell numbers for HPV-16 detection ([5]; Sample # 5): 6.0 tumor cells
Threshold of tumor cell numbers for HPV-16 detection ([5]; Sample # 6): 15.0 tumor cells
Threshold of tumor cell numbers for HPV-16 detection ([5]; Sample # 7): 30.0 tumor cells
Threshold of tumor cell numbers for HPV-16 detection ([5]; Sample # 8): 30.0 tumor cells
Threshold of tumor cell numbers for HPV-16 detection ([5]; Sample # 9): 1.2 tumor cells
Threshold of tumor cell numbers for HPV-16 detection ([5]; Sample # 10): 6.0 tumor cells
Threshold of tumor cell numbers for HPV-16 detection ([5]; Sample # 11): 30.0 tumor cells
Threshold of tumor cell numbers for HPV-16 detection ([5]; Sample # 12): 30.0 tumor cells
Threshold of tumor cell numbers for HPV-16 detection ([5]; Sample # 13): 6.0 tumor cells
Threshold of tumor cell numbers for HPV-16 detection ([5]; Sample # 14): 6.0 tumor cells
Threshold of tumor cell numbers for HPV-16 detection ([5]; Sample # 15): 6.0 tumor cells
Threshold of tumor cell numbers for HPV-16 detection ([5]; Sample # 16): 6.0 tumor cells
Threshold of tumor cell numbers for HPV-16 detection ([5]; Sample # 17): 1.2 tumor cells
Threshold of tumor cell numbers for HPV-16 detection ([5]; Sample # 18): 0.2 tumor cells
Threshold of tumor cell numbers for HPV-16 detection ([5]; Sample # 19): 1.2 tumor cells
Threshold of tumor cell numbers for HPV-16 detection ([5]; Sample # 20): 3.0 tumor cells
Threshold of tumor cell numbers for HPV-16 detection ([5]; Sample # 21): 0.6 tumor cells
Threshold of tumor cell numbers for HPV-16 detection ([5]; Sample # 22): 0.3 tumor cells
Threshold of tumor cell numbers for HPV-16 detection ([5]; Sample # 23): 1.2 tumor cells
Threshold of tumor cell numbers for HPV-16 detection ([5]; Sample # 24): 0.6 tumor cells
Threshold of tumor cell numbers for HPV-16 detection ([5]; Sample # 25): 0.3 tumor cells
Threshold of tumor cell numbers for HPV-16 detection ([5]; Sample # 26): 0.6 tumor cells
Threshold of tumor cell numbers for HPV-16 detection ([5]; Sample # 27): 0.6 tumor cells
Threshold of tumor cell numbers for HPV-16 detection ([5]; Sample # 28): 0.6 tumor cells
Threshold of tumor cell numbers for HPV-16 detection ([5]; Sample # 29): 1.0 tumor cells
Threshold of tumor cell numbers for HPV-16 detection ([5]; Sample # 30): 15.0 tumor cells
Threshold of tumor cell numbers for HPV-16 detection ([5]; Sample # 31): 0.6 tumor cells
Threshold of tumor cell numbers for HPV-16 detection ([5]; Sample # 32): 15.0 tumor cells
Sensitivity, 1 cell [5, 10]: 0.281*
Sensitivity, 3 cells [5, 10]: 0.438
Sensitivity, 10 cells [5, 10]: 0.688
Sensitivity, 30 cells [5, 10]: 0.938*
Sensitivity, 100 cells [5, 10]: 0.969*
Measuring Range - Salivary Rinse ([6]; first template ('... HPV16')): 2.0-8.5 log10 log10 copies/mL
Limit of Detection - Salivary rinse [6, 8]: 3 copies/mL
Limit of Detection - Salivary rinse [6, 9]: 12 copies/mL
Measuring Range - Salivary Rinse [6, 9]: 2.0-6.5 log10 log10 copies/mL
